Tests used:
[1] = target: T1, ZIKV virus-like particles (Suriname Z1106033) (Zika virus, Suriname Z1106033, UniProt A0A0U4DG08, strain); assay: Luminex bead assay; VLP conjugated to MagPlex beads (EDC/NHS); 10,000 beads/mL with 10 μg/mL to 0.0002 ng/mL MAb, 90 min, room temperature, 1% BSA in D-PBS; detected with phycoerythrin-labeled anti-rabbit IgG; settings: both partners purified
T1 construct: also called ZIKV-VLP; VLP; source: bought: The Native Antigen Company

[2] = target: T2, ZIKV E protein (Suriname Z1106033) (Zika virus, Suriname Z1106033, UniProt A0A0U4DG08, strain); assay: BLI; Octet HTX; 2 μg/mL MAb captured on protein G biosensor in 0.1% BSA-PBST; 3 μg/mL ZIKV E protein associated 600 s, dissociated 900 s; settings: both partners purified
T2 construct: also called soluble ZIKV E protein

[3] = target: T1, ZIKV virus-like particles (Suriname …); assay: BLI; Octet HTX; MAb 0.1 to 0.3 μg/mL amine-coupled to AR2G biosensor; ZIKV-VLP 0.1 to 1.0 μg/mL or ZIKV E protein 0.2 to 2 μg/mL in 1x kinetic buffer; association 900 s, dissociation 1,200 s; Langmuir 1:1 model; average of two runs; settings: both partners purified
[4] = target: T2, ZIKV E protein (Suriname Z1106033); assay: as above; settings: both partners purified
[5] = target: ZIKV prM/E (ZIKV SPH2015), E G182A (Zika virus (ZIKV SPH2015)); assay: flow cytometry on cells
[6] = target: ZIKV prM/E (ZIKV SPH2015), E S368A (Zika virus (ZIKV SPH2015)); assay: flow cytometry on cells
[7] = target: ZIKV prM/E (ZIKV SPH2015), E T335A (Zika virus (ZIKV SPH2015)); assay: flow cytometry on cells
[8] = target: ZIKV prM/E (ZIKV SPH2015), prM D57A (Zika virus (ZIKV SPH2015)); assay: flow cytometry on cells
[9] = target: ZIKV prM/E (ZIKV SPH2015), prM V60A (Zika virus (ZIKV SPH2015)); assay: flow cytometry on cells
[10] = target: ZIKV prM/E (ZIKV SPH2015), E K301A (Zika virus (ZIKV SPH2015)); assay: flow cytometry on cells
[11] = target: ZIKV prM/E (ZIKV SPH2015), E E162A (Zika virus (ZIKV SPH2015)); assay: flow cytometry on cells
[12] = target: ZIKV prM/E (ZIKV SPH2015), E H399A (Zika virus (ZIKV SPH2015)); assay: flow cytometry on cells
[13] = target: ZIKV prM/E (ZIKV SPH2015), E T309A (Zika virus (ZIKV SPH2015)); assay: flow cytometry on cells
[14] = target: ZIKV prM/E (ZIKV SPH2015), E T397A (Zika virus (ZIKV SPH2015)); assay: flow cytometry on cells
[15] = target: ZIKV prM/E (ZIKV SPH2015), prM G59A (Zika virus (ZIKV SPH2015)); assay: flow cytometry on cells
[16] = target: ZIKV prM/E (ZIKV SPH2015), E G337A (Zika virus (ZIKV SPH2015)); assay: flow cytometry on cells
[17] = target: ZIKV prM/E (ZIKV SPH2015), E G302A (Zika virus (ZIKV SPH2015)); assay: flow cytometry on cells
[18] = target: ZIKV prM/E (ZIKV SPH2015), prM E58A (Zika virus (ZIKV SPH2015)); assay: flow cytometry on cells
[19] = target: ZIKV prM/E (ZIKV SPH2015), E H398A (Zika virus (ZIKV SPH2015)); assay: flow cytometry on cells
[20] = target: ZIKV prM/E (ZIKV SPH2015), E I317A (Zika virus (ZIKV SPH2015)); assay: flow cytometry on cells
[21] = target: ZIKV prM/E (ZIKV SPH2015), E T369A (Zika virus (ZIKV SPH2015)); assay: flow cytometry on cells
[22] = target: ZIKV prM/E (ZIKV SPH2015), E E370A (Zika virus (ZIKV SPH2015)); assay: flow cytometry on cells
[23] = target: T3, wild-type ZIKV prM/E (ZIKV SPH2015) (Zika virus, SPH2015, UniProt A0A0U3FSM8, strain); assay: flow cytometry on cells; settings: one partner purified
T3 construct: also called WT prM/E; wild-type prM/E; source: HEK-293T, transfected, cells fixed and permeabilised

[24] = target: ZIKV prM/E (ZIKV SPH2015), E G100A (Zika virus (ZIKV SPH2015)); assay: flow cytometry on cells
[25] = target: ZIKV prM/E (ZIKV SPH2015), E L107A (Zika virus (ZIKV SPH2015)); assay: flow cytometry on cells
[26] = target: T2, ZIKV E protein (Suriname Z1106033); assay: cell-based or functional assay

B1: framework region (FWR) amino acid reverted anti-ZIKV MAb 102-1 (antibody, V domains shown)
VH: QSLEESGGDLVKPGASLTLTCTASGFSFNSNYWMCWVRQAPGKGLEWIACVFGGIHVTYYASWAKGRFTISKTSSTTVTLQMTSLTAADTATYFCIISTGGSHRFNLWGPGTLVTVSS
VL: DVVMTQTPSPVSAAVGGTVTINCQASESIYTYLSWYQQKPGQPPKLLIYRASTLESGVPSRFKGSGSGTQFTLTISDLECADAATYYCQATDVGGSGRGAFGGGTEVVVE
notes: rabbit IgG; 9 FWRH and 9 FWRL residues reverted to the germ line
- binding result [1]: binds
- binding result [2]: binds

B2: anti-ZIKV MAb 78-2 (antibody, V domains shown)
VH: QQQLVESGGGLVKPGASLTLNCKASGLDFSTNSYMCWVRQAPGKGLEWIACIYVGDSSEIYYASWAKGRFTISKTSSTTVTLQMTSLTAADTATYFCARDLPSFTAPYAGYLRLWGPGTLVTVSS
VL: QPVLTQPPSLSASLGTTARLTCTLRTGYNVGDYPLLWLQRVPGRPPRYLLTYHTEEFKHQGSGVHSRFSGSKDASENAGVLSISGLQPEDEANYYCYTVHATESSLHYVFGGGTQLTVT
- Kd [3]: 0.19 nM
- koff [3]: 4.28e-05 s⁻¹
- kon [3]: 221000 M⁻¹ s⁻¹
- Kd [4]: 0.1 nM
- koff [4]: 1.94e-05 s⁻¹
- kon [4]: 192000 M⁻¹ s⁻¹
- antibody binding reactivity (% WT) [5]: 110 % WT
- antibody binding reactivity (% WT) [6]: 87.5 % WT
- antibody binding reactivity (% WT) [7]: 71.6 % WT
- antibody binding reactivity (% WT) [8]: 123 % WT
- antibody binding reactivity (% WT) [9]: 113 % WT
- antibody binding reactivity (% WT) [10]: 82.5 % WT
- antibody binding reactivity (% WT) [11]: 101 % WT
- antibody binding reactivity (% WT) [12]: 97.2 % WT
- antibody binding reactivity (% WT) [13]: 96.2 % WT
- antibody binding reactivity (% WT) [14]: 147 % WT
- antibody binding reactivity (% WT) [15]: 117 % WT
- antibody binding reactivity (% WT) [16]: 59.7 % WT
- antibody binding reactivity (% WT) [17]: 69.2 % WT
- antibody binding reactivity (% WT) [18]: 130 % WT
- antibody binding reactivity (% WT) [19]: 92.9 % WT
- antibody binding reactivity (% WT) [20]: 61.2 % WT
- antibody binding reactivity (% WT) [21]: 113 % WT
- antibody binding reactivity (% WT) [22]: 92.7 % WT
- binding result [23]: binds

B3: anti-ZIKV MAb 242-3 (antibody, V domains shown)
VH: QAQLEESGGDLVKPEGSLTLTCTASGFSFTDRHYMCWIRQAPGKGLEWIACVYPGSSGSTYYASWARGRFTISKTSSTTVTLRMTSLTAADTATYFCARSSYPDSSGYSYGMDLWGPGTLVTVSS
VL: DIVMTQTPASVEAAVGGTVTIKCQASQNINSNLAWYQQKPGQRPKFLMYLTSKLASGVPSRFRGSGSGTQFTLTISDLECADAATYYCQTYYDISNYGYAFGGGTEVVVK
notes: recombinant rabbit IgG; 99% amino acid identity with 270-12
- Kd [3]: 0.24 nM
- koff [3]: 4.93e-05 s⁻¹
- kon [3]: 202000 M⁻¹ s⁻¹
- Kd [4]: 1.22 nM
- koff [4]: 8.16e-05 s⁻¹
- kon [4]: 67100 M⁻¹ s⁻¹
- antibody binding reactivity (% WT) [5]: 85.6 % WT
- antibody binding reactivity (% WT) [6]: 89.1 % WT
- antibody binding reactivity (% WT) [7]: 36.2 % WT
- antibody binding reactivity (% WT) [8]: 91.9 % WT
- antibody binding reactivity (% WT) [24]: 70.3 % WT
- antibody binding reactivity (% WT) [9]: 97.2 % WT
- antibody binding reactivity (% WT) [10]: 78.7 % WT
- antibody binding reactivity (% WT) [11]: 79.6 % WT
- antibody binding reactivity (% WT) [12]: 127 % WT
- antibody binding reactivity (% WT) [13]: 104 % WT
- antibody binding reactivity (% WT) [14]: 111 % WT
- antibody binding reactivity (% WT) [15]: 94.9 % WT
- antibody binding reactivity (% WT) [16]: 48.3 % WT
- antibody binding reactivity (% WT) [17]: 68.3 % WT
- antibody binding reactivity (% WT) [18]: 96.8 % WT
- antibody binding reactivity (% WT) [19]: 77.2 % WT
- antibody binding reactivity (% WT) [25]: 122 % WT
- antibody binding reactivity (% WT) [20]: 112 % WT
- antibody binding reactivity (% WT) [21]: 34.5 % WT
- other [26]: 42.8 ng/mL
- binding result [23]: binds

B4: anti-ZIKV MAb 270-12 (antibody, V domains shown)
VH: QAQLEESGGDLVKPEGSLTLTCTASGFSFTDRHYMCWVRQAPGKGLEWIACVYPGSSGSTYYASWARGRFTISKTSSTTVTLRMTSLTAADTATYFCARSSYPDSSGYSYGMDLWGPGTLVTVSS
VL: DIVMTQTPASVEAAVGGTVTIKCQASQDINSNLAWYQQKPGQRPKFLMYLTSKLASGVPSRFRGSGSGTQFTLTISDLECADAATYYCQTYYDISNYGYAFGGGTEVVVK
notes: source: 293-6E cells, cotransfected, purified (MabSelect SuRe protein A)
- Kd [3]: 0.31 nM
- koff [3]: 4.27e-05 s⁻¹
- kon [3]: 140000 M⁻¹ s⁻¹
- Kd [4]: 1.04 nM
- koff [4]: 9.8e-05 s⁻¹
- kon [4]: 94500 M⁻¹ s⁻¹
- MNT titer, IC50 (microneutralization of ZIKV PRVABC59 on Vero cells) [26]: 0.0372 µg/mL
- binding result [23]: binds

B5: anti-ZIKV MAb 11-3 (antibody, V domains shown)
VH: QEQLVESGGGLVQPEGSLTITCTGSGFSFSSRFYMCWVRQAPGKGLEWIACIYGGSSGSTYYASWAKGRFTISKTSSTTVTLQISSLTAADTATYFCARGGSTAAAGFNLWGPGTLLTVSS
VL: DVVMTQTPASVSATVGGTVTIKCQASEDIYNLLAWYQQKPGQPPKLLIYYASTLASGVPSRFKGSGSGTEFTLTISDLECADAATYYCQCNDYGGTYVPNAFGGGTEVVVK
notes: recombinant rabbit IgG
- Kd [3]: 0.57 nM
- koff [3]: 7.13e-05 s⁻¹
- kon [3]: 125000 M⁻¹ s⁻¹
- Kd [4]: 1.53 nM
- koff [4]: 0.000137 s⁻¹
- kon [4]: 89800 M⁻¹ s⁻¹

B6: anti-ZIKV MAb 289-3 (antibody, V domains shown)
VH: QEELEESGGDLVKPGASLTLTCKASGFSFSSGAYICWVRQAPGKGPEWIACIYTGDGRTYYANWAKRRFTISSSSSTTVALEMPSLTDADTATYFCARAIAVGAGYGVGNYFTLWGPGTLVTVSS
VL: DIVMTQTPSSVSAAVGGTVTINCHASENIYGYLSWYQQKPGQPPKLLIYKASTLASGVPSRFKGSGAGTQFTLTITALECADAATYYCQSYYTSSSNADGSENAFGGGTEVVVE
- Kd [3]: 0.3 nM
- koff [3]: 4.58e-05 s⁻¹
- kon [3]: 155000 M⁻¹ s⁻¹
- Kd [4]: 0.29 nM
- koff [4]: 3.68e-05 s⁻¹
- kon [4]: 129000 M⁻¹ s⁻¹
- other [26]: 7.8 ng/mL
- binding result [23]: binds

B7: anti-ZIKV MAb 306-2 (antibody, V domains shown)
VH: QSLEESGGDLVKPGASLTLTCTASGFDFSDRYYMCWVRQAPGKGLEWIGCIYVGSGDTYYASWAKGRFTISRTSSTTVTLQMTRLTAADTATYFCARHPGTYFTLWGPGTLVTVSS
VL: DVVMTQTPSSVSAAVGGTVTINCQASQNIVNNLAWYQQRPGQPPKLLIYDTSTLASGVPSRFKGSGSGTEFTLTISDLECADAATYYCQTYYYYNKIINGFGGGTEVVVK
- Kd [3]: 0.4 nM
- koff [3]: 6.34e-05 s⁻¹
- kon [3]: 160000 M⁻¹ s⁻¹
- Kd [4]: 0.17 nM
- koff [4]: 2.04e-05 s⁻¹
- kon [4]: 117000 M⁻¹ s⁻¹
- other [26]: 10500 ng/mL
- binding result [23]: binds

B8: framework region (FWR) amino acid reverted anti-ZIKV MAb 306-2 (antibody, V domains shown)
VH: QSLEESGGDLVKPGASLTLTCTASGFDFSDRYYMCWVRQAPGKGLEWIACIYVGSGDTYYASWAKGRFTISKTSSTTVTLQMTSLTAADTATYFCARHPGTYFTLWGPGTLVTVSS
VL: DVVMTQTPSPVSAAVGGTVTINCQASQNIVNNLSWYQQKPGQPPKLLIYDTSNLASGVPSRFKGSRSGTEFTLTISDLECADAATYYCQTYYYYNKIINGFGGGTEVVVK
notes: rabbit IgG; 3 FWRH and 5 FWRL residues reverted to the germ line; also called allele reverted MAb 306-2; MAb 306-2 with amino acid reverted to allele
- binding result [1]: binds
- binding result [2]: binds

Source: PMC9175631 (Journal of Virology, 2022)
